Our source for the Kd values is EP2351583A1.

For the assay, the target named is AAB1/B2Fc. Put plainly: SPR (BIAcore), Fab immobilized on Pioneer F1 chip, AAB1/B2Fc as analyte.

B1: Fab fragment F200 (Fab, V domains shown)
VH: QVQLKESGPGLVAPSQSLSITCTISGFSLTDYGVHWVRQPPGKGLEWLVVIWSDGSSTYNSALKSRMTIRKDNSKSQVFLIMNSLQTDDSAMYYCARHGTYYGMTTTGDALDYWGQGTSVTVSS
VL: QIVLTQSPAIMSASLGERVTMTCTASSSVSSNYLHWYQQKPGSAPNLWIYSTSNLASGVPARFSGSGSGTSYSLTISSMEAEDAATYYCHQYLRSPPTFGGGTKLEIKR
The molecule B1 showed a dissociation constant (Kd) of 0.332 nM.

As usually defined, the Kd is a measure of binding affinity in units of concentration. Lower therefore signals higher affinity.
